Tests used:
[1] = biological target: T1, cyno PD-1, full length, on CHO-K1 cells (cyno monkey, UniProt B0LAJ3 25-288); test: flow cytometry on CHO-K1-cPD-1 cells
T1 construct: also called CHO-K1-cPD-1; cPD-1
Description: CHO-K1 cells were stably transfected with pIRES plasmid containing the nucleic acid sequence encoding full length human PD-1 (see Example 2, step 2) to generate CHO-K1 cells stably expressing human PD-1 (herein referred to as CHO-K1-hPD-1 cells). Other CHO-K1 were stably transfected with pIRES plasmid containing the nucleic acid sequence encoding full length cyno PD-1 to generate CHO-K1 cells stably expressing cyno PD-1 (herein referred to as CHO-K1-cPD-1 cells). CHO-K1-hPD-1 and CHO-K1-cPD-1 cells were cultured and expanded in T-75 culture flasks to 90% confluence. The culture media was aspirated, and the cells were washed twice with HBSS (Hanks Balanced Salt Solution, Invitrogen). The cells were treated with enzyme-free cell dissociation solution (Versene solution, Invitrogen) and collected. The cells were then washed twice with HBSS, cell counts were determined, and cells were resuspended with HBSS at 2×10⁶ cells/mL. Goat serum was added to the cell suspension to a final concentration of 1%, and the cells were blocked for 30 minutes on ice and then washed twice with HBSS. The cells were collected after centrifugation and resuspended in FACS buffer (HBSS+1% BSA, v/v) at 2×10⁶ cells/mL. 100 uL of the cell suspension were then added to each well of 96-well plate. 100 uL of purified anti-PD-1 antibodies from Example 2 were added to each well of the 96-well plate and incubated for 2 hours on ice. […] The samples were washed three times with FACS buffer, and 100 uL fixation buffer (4% paraformaldehyde v/v) were added to each well and incubated for 10 minutes. The cells were then washed twice with FACS buffer and resuspended in 100 uL FACS buffer. The mean fluorescence intensity (MFI) was determined using FACS Calibur (BD), and the results are shown in FIGS. 7-8 and in Tables 10-11.

[2] = biological target: T2, human PD-1, full length, on cells (human, UniProt Q15116 25-288); test: cell-based or functional assay
[3] = biological target: T3, human PD-1^ECD-hFc protein (Immunogen A) (human, UniProt Q15116 25-167); test: BLI Octet Red 96, biotinylated PD-1ECD-hFc on streptavidin sensor
T3 construct: also called PD-1-hFc; hPD-1^ECD-hFc; not shown: human IgG Fc fragment (hFc)
Procedure: Dissociation constants were determined by Octed red 96 (Fortiebio). The detailed operation and methods were followed according to the specifications of the instrument provided by the manufacturer. Briefly, a streptavidin sensor (SA sensor, Fortiebio) was used for the affinity determination. […] The reaction mixture was further incubated in PBS buffer (pH7.4) containing 0.1% (v/w) BSA and 0.02% (v/v) Tween20 at 30° C. for 5 minutes. […] The affinity, association and dissociation constants were determined using Octet User software, and the results are shown in Table 12.

[4] = biological target: T2, human PD-1, full length, on cells; test: cell-based or functional assay; remark: listed apart in the source
[5] = biological target: T2, human PD-1, full length, on cells; test: cell-based or functional assay; remark: listed apart in the source
[6] = biological target: T2, human PD-1, full length, on cells; test: cell-based or functional assay; remark: listed apart in the source
[7] = biological target: T2, human PD-1, full length, on cells; test: flow cytometry on CHO-K1-hPD-1 cells

T1 sequence (B0LAJ3 entry or part of it limits assumed): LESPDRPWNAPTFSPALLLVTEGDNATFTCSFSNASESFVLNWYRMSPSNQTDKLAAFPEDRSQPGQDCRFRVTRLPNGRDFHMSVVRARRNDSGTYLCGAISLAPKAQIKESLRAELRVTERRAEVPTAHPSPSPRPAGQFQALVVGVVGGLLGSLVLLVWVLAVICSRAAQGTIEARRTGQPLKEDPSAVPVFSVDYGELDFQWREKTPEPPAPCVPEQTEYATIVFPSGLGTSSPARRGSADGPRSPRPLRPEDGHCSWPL
T2 sequence (Q15116 25-288): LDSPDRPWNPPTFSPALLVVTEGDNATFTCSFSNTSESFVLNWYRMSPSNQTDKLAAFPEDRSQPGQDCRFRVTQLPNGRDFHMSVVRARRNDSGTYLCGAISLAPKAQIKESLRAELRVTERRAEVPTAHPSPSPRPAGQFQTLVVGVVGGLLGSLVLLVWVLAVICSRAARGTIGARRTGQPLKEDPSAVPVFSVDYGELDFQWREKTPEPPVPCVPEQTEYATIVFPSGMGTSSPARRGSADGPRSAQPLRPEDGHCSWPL
T3 sequence (Q15116 25-167): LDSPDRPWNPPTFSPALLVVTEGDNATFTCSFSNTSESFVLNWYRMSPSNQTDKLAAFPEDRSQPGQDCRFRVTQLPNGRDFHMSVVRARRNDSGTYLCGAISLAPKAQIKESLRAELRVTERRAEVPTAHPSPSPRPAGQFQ

MFI at 0.0316 nM [1]	MFI at 0.1 nM [1]	MFI at 0.316 nM [1]	MFI at 1 nM [1]	MFI at 3.16 nM [1]	MFI at 10 nM [1]	MFI at 31.6 nM [1]	MFI at 100 nM [1]	Binder	also measured
2.3 MFI	28.4 MFI	59.3 MFI	132 MFI	217 MFI	326 MFI	314 MFI	297 MFI	chimeric anti-PD-1 antibody 76G5B3 (antibody, V domains shown) VH: QVQLVESGGGVVQPGRSLRLSCAASGFTFSDYGFHWVRQAPGKGLEWVAVIWYDGSNEYYTDSVKGRFTISRDNSKNTLYLQMNSLRAEDTAMYFCVVNPFDYWGQGTLVTVSS VL: DIQMTQSPSSLSAFVGDRVTITCRASQGINHYLAWYQQKPGKAPNLLILAASTLLSGVPSRFGGRGSGTDFTLIISSLQPEDVATYYCQKYDSAPYTFGQGTKLEIK	IFN-γ release, mixed lymphocyte reaction (PBMC donor-2), antibody 0.001 µg/mL [2]: 1810 pg/mL; IFN-γ release, mixed lymphocyte reaction (PBMC donor-2), antibody 0.01 µg/mL [2]: 5520 pg/mL; IFN-γ release, mixed lymphocyte reaction (PBMC donor-2), antibody 0.1 µg/mL [2]: 12700 pg/mL; IFN-γ release, mixed lymphocyte reaction (PBMC donor-2), antibody 1 µg/mL [2]: 15900 pg/mL; Kd [3]: 32 pM; koff [3]: 1.3e-05 s⁻¹; kon [3]: 408000 M⁻¹ s⁻¹; IL-2 release, mixed lymphocyte reaction (PBMC donor-2), antibody 0.001 µg/mL [4]: 93.3 pg/mL; IL-2 release, mixed lymphocyte reaction (PBMC donor-2), antibody 0.01 µg/mL [4]: 145 pg/mL; IL-2 release, mixed lymphocyte reaction (PBMC donor-2), antibody 0.1 µg/mL [4]: 182 pg/mL; IL-2 release, mixed lymphocyte reaction (PBMC donor-2), antibody 1 µg/mL [4]: 194 pg/mL; IFN-γ release, mixed lymphocyte reaction (PBMC donor-1), antibody 0.001 µg/mL [5]: 2900 pg/mL; IFN-γ release, mixed lymphocyte reaction (PBMC donor-1), antibody 0.01 µg/mL [5]: 7530 pg/mL; IFN-γ release, mixed lymphocyte reaction (PBMC donor-1), antibody 0.1 µg/mL [5]: 12100 pg/mL; IFN-γ release, mixed lymphocyte reaction (PBMC donor-1), antibody 1 µg/mL [5]: 8110 pg/mL; IL-2 release, mixed lymphocyte reaction (PBMC donor-1), antibody 0.001 µg/mL [6]: 88.8 pg/mL; IL-2 release, mixed lymphocyte reaction (PBMC donor-1), antibody 0.01 µg/mL [6]: 131 pg/mL; IL-2 release, mixed lymphocyte reaction (PBMC donor-1), antibody 0.1 µg/mL [6]: 148 pg/mL; IL-2 release, mixed lymphocyte reaction (PBMC donor-1), antibody 1 µg/mL [6]: 140 pg/mL
2.2 MFI	13.7 MFI	25.8 MFI	46.3 MFI	89 MFI	174 MFI	151 MFI	150 MFI	chimeric anti-PD-1 antibody 32B5C7 (antibody, V domains shown) VH: EVQLLESGGGLVQPGGSLRLSCAASGFTFSSYAMSWVRQAPGKGLEWVSTISGSGGTTYYADSVKGRFTISRDNSKNTLYLQMNSLRAEDTAVYYCTLTGDPDYWGQGTLVTVSS VL: EIVLTQSPATLSLSPGERATLSCRASQSVSSYLAWYQQKPGQAPRLLIYDASKRATGIPARFSGSGSGTDFTLTISSLEPEDFAVYYCQQRNNWPLTFGGGTKVEIK	Kd [3]: 45 pM; koff [3]: 9.64e-06 s⁻¹; kon [3]: 212000 M⁻¹ s⁻¹
	23.4 MFI		156 MFI		773 MFI		944 MFI	chimeric anti-PD-1 antibody 21G8F11 (antibody, V domains shown) VH: EVQLLESGGGLAQPGGSLRLSCAASGFSFNTYLMHWVRQAPGKGLEWVSAISGGGGNTYYADSVKGRFTISRDNSKNTLYLQMNSLRAEDTAVYYCAKENRIPVAPFDYWGQGTLVTVSS VL: DIQMTQSPSTLSASVGDRVTITCRASQSISTWLAWYQQKPGKAPKLLIYKASSLESGVPSRFSGSGSGTEFTLTISSLQPDDLATYYCQQYNSFSWTFGQGTKVEIK	IFN-γ release, mixed lymphocyte reaction (PBMC donor-2), antibody 0.001 µg/mL [2]: 2090 pg/mL; IFN-γ release, mixed lymphocyte reaction (PBMC donor-2), antibody 0.01 µg/mL [2]: 2720 pg/mL; IFN-γ release, mixed lymphocyte reaction (PBMC donor-2), antibody 0.1 µg/mL [2]: 2630 pg/mL; IFN-γ release, mixed lymphocyte reaction (PBMC donor-2), antibody 1 µg/mL [2]: 2830 pg/mL; IL-2 release, mixed lymphocyte reaction (PBMC donor-2), antibody 0.001 µg/mL [4]: 30 pg/mL; IL-2 release, mixed lymphocyte reaction (PBMC donor-2), antibody 0.01 µg/mL [4]: 43.4 pg/mL; IL-2 release, mixed lymphocyte reaction (PBMC donor-2), antibody 0.1 µg/mL [4]: 74.2 pg/mL; IL-2 release, mixed lymphocyte reaction (PBMC donor-2), antibody 1 µg/mL [4]: 103 pg/mL; IFN-γ release, mixed lymphocyte reaction (PBMC donor-1), antibody 0.001 µg/mL [5]: 3010 pg/mL; IFN-γ release, mixed lymphocyte reaction (PBMC donor-1), antibody 0.01 µg/mL [5]: 5910 pg/mL; IFN-γ release, mixed lymphocyte reaction (PBMC donor-1), antibody 0.1 µg/mL [5]: 15300 pg/mL; IFN-γ release, mixed lymphocyte reaction (PBMC donor-1), antibody 1 µg/mL [5]: 15200 pg/mL; IL-2 release, mixed lymphocyte reaction (PBMC donor-1), antibody 0.001 µg/mL [6]: 33.1 pg/mL; IL-2 release, mixed lymphocyte reaction (PBMC donor-1), antibody 0.01 µg/mL [6]: 48.9 pg/mL; IL-2 release, mixed lymphocyte reaction (PBMC donor-1), antibody 0.1 µg/mL [6]: 106 pg/mL; IL-2 release, mixed lymphocyte reaction (PBMC donor-1), antibody 1 µg/mL [6]: 65.6 pg/mL

The next lines start with the binder.

Binder	MFI at 0.0316 nM [1]	MFI at 0.1 nM [1]	MFI at 0.316 nM [1]	MFI at 1 nM [1]	MFI at 3.16 nM [1]	MFI at 10 nM [1]	MFI at 31.6 nM [1]	MFI at 100 nM [1]	also measured
chimeric anti-PD-1 antibody 204C5E12 (antibody, V domains shown) VH: QVQLVESGGGVVQPGRSLRLSCAASGFSFSYYGMHWVRQAPGKGLEWVAVIWYDGSNKYYADSVKGRFTISRDNSKNTLYLQMNSLRAEDTAVYYCASGITLVRGADYYYNYDMDVWGQGTTVTVSS VL: not shown	2.9 MFI	3.1 MFI	3.1 MFI	5.1 MFI	23.4 MFI	156 MFI	773 MFI	944 MFI	
fully human anti-PD-1 antibody 32B5C7 (antibody, human IgG4 S228P, kappa, V domains shown) VH: EVQLLESGGGLVQPGGSLRLSCAASGFTFSSYAMSWVRQAPGKGLEWVSTISGSGGTTYYADSVKGRFTISRDNSKNTLYLQMNSLRAEDTAVYYCTLTGDPDYWGQGTLVTVSS VL: EIVLTQSPATLSLSPGERATLSCRASQSVSSYLAWYQQKPGQAPRLLIYDASKRATGIPARFSGSGSGTDFTLTISSLEPEDFAVYYCQQRNNWPLTFGGGTKVEIKR									MFI at 0.01 nM [7]: 2.8 MFI
chimeric anti-PD-1 antibody 226C3A7 (antibody, V domains shown) VH: QVQLQQSGPGLVNPSQTLSLTCAISGDSVSSNSGAWNWIRQSPSRGLEWLGRTYYRSKWYNDYGISVQSRITINPDTSKNHFSLQLNSVTPEDTAVYYCARDPYYYGSGSYFDYWGQGTLVTVSS VL: EIVMTQSPATLSVSPGERVTLSCRASLSVNSNLAWYQQKPGQAPRLLIYDTSTRATGVPARFSGSGSGTEFTLTISSLQSEDFAVYYCQQYHYWPLTFGGGTKVEIK	3.3 MFI	3.3 MFI	3.6 MFI	5.8 MFI	28 MFI	221 MFI	848 MFI	933 MFI	
chimeric anti-PD-1 antibody 223G6B5 (antibody, V domains shown) VH: QVQLQESGPGLVKPSETLSLTCAVSGHSIRGSYFWGWIRQPPGRGLEWIGSIYHSGSTYTNPSLKSRATISVDTSKNQFSLKLNSVTAADTAVYYCARDLDIATTRDYWGQGTLVTVSS VL: DIQLTQSPSFLSASVGDRVTIICRASQGINNYLAWYQQKPGKAPKLLIYAASTLQSGVPSRFSGSGSGTEFTLTISSLQPEDFATYYCQQLDSYPRTFGQGTKVEIKR		50.6 MFI		475 MFI		2120 MFI		2340 MFI	
